Assay [1] addresses hPD-L1 as used in the binding and blocking tests of Example 4 (human, UniProt Q9NZQ7 19-238, limits assumed). The assay can be described thus: competition with PD-1 for PD-L1, scFv-Fc (FIG. 3).
Assay [2] deals with human PD-L1 on primary human cells in the dendritic cell / CD4+ T cell mixed lymphocyte reaction (human, UniProt Q9NZQ7 19-290). Kind of assay: cell-based or functional assay.

“And” between values parts separate entries of the source, which are not always exact repeats. Equal values may be shown once.

human PD-L1 on primary human cells in the dendritic cell / CD4+ T cell mixed lymphocyte reaction, sequence (Q9NZQ7 19-290): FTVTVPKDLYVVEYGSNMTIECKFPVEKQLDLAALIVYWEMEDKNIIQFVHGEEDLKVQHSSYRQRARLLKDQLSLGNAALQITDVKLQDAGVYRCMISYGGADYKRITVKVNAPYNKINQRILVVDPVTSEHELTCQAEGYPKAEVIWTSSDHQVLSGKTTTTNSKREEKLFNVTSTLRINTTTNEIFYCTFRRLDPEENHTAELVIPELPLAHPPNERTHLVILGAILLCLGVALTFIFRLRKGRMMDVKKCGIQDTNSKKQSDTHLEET
hPD-L1 as used in the binding and blocking tests of Example 4, sequence (Q9NZQ7 19-238 limits assumed): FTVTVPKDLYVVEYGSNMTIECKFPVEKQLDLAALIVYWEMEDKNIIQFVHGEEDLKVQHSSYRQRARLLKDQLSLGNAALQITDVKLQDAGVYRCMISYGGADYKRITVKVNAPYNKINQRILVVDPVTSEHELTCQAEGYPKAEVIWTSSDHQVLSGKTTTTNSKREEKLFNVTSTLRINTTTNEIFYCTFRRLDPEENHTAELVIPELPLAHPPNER

B1: BII61-62 anti-hPD-L1 scFv fused to IgG1-Fc (affinity matured) (Fc fusion)
scFv: QVQLQQSGPGLVKPSQTLSLTCAISGDSVSSNSASWNWIRQSPSRGLEWLGRTYYRSKWYDDYAVSVKGRISINPDTSKNQFSLQLNSVTPEDTAVYYCARSQGRYFVNYGMDVWGQGTTVTVSSGGGGSGGGGSGGGGSDIRLTQSPSSLSASVGDRITITCRASQSISSYLNWYQQKPGKAPKLLVYGASSLQSGVPSRFSGSGSGTDFTLTISSLQPEDVATYYCQQSYFTPRGITFGPGTKVDIK
notes: not shown: human immunoglobulin gamma1 (IgG1) constant region, UniProt P01857, residues 104-330 (IgG1-Fc)
A word on the IC50: it is the concentration that inhibits the measured activity by half. As to B1, the IC50 in assay [1] was 0.837 µg/mL.

B2: BII61-62 mAb (anti-hPD-L1, human IgG1, kappa) (antibody, V domains shown)
VH: QVQLQQSGPGLVKPSQTLSLTCAISGDSVSSNSASWNWIRQSPSRGLEWLGRTYYRSKWYDDYAVSVKGRISINPDTSKNQFSLQLNSVTPEDTAVYYCARSQGRYFVNYGMDVWGQGTTVTVSS
VL: DIRLTQSPSSLSASVGDRITITCRASQSISSYLNWYQQKPGKAPKLLVYGASSLQSGVPSRFSGSGSGTDFTLTISSLQPEDVATYYCQQSYFTPRGITFGPGTKVDIK
For B2, the “EC50 of IFN-γ secretion by CD4+ T cells in a dendritic cell-T cell mixed lymphocyte reaction” value in assay [2] was 0.078 µg/ml and 0.5 nM.

B3: B60-55 anti-hPD-L1 scFv fused to IgG1-Fc (affinity matured) (Fc fusion)
scFv: QVQLVQSGAEVKKPASSVKVSCTASGGSFSTYAISWVRQAPGQGLEWMGGIIPIFGTTKYAQRFQGRVTITADESTTTAYMELSSLISDDTALYYCTTSRGFNYGWFDYWGQGTLVTVSSGGGGSGGGGSGGGGSEIVMTQSPATLSLSPGERATLSCRASQSVGIHLAWYQQKLGQAPRLLIYGASSRATGIPDRFSGSGSGTDFTLTISRLEPEDFAVYYCQQYGSLPRTFGQGTKVEIK
notes: as for B1
The molecule B3 gave an IC50 in assay [1] of 1.14 µg/mL.

B4: B60-55 mAb (anti-hPD-L1, human IgG1, kappa) (antibody, V domains shown)
VH: QVQLVQSGAEVKKPASSVKVSCTASGGSFSTYAISWVRQAPGQGLEWMGGIIPIFGTTKYAQRFQGRVTITADESTTTAYMELSSLISDDTALYYCTTSRGFNYGWFDYWGQGTLVTVSS
VL: EIVMTQSPATLSLSPGERATLSCRASQSVGIHLAWYQQKLGQAPRLLIYGASSRATGIPDRFSGSGSGTDFTLTISRLEPEDFAVYYCQQYGSLPRTFGQGTKVEIK
B4: the “EC50 of IFN-γ secretion by CD4+ T cells in a dendritic cell-T cell mixed lymphocyte reaction” value in assay [2] was 0.189 µg/ml and 1.2 nM.

The values are drawn from patent US20210115143A1 (R PHARM OVERSEAS, published 2021).
